# Source: patent US20250027068
# Changes are numbered by the printed parent chain.
# B1: PRT-79 (protein)
# chain: MANQEIRYSEVTPKTITSVWTKGVTPPAKFTQNEDVFHAPYVANQGWYDITKTFNGKDDLLCGAATAGNMLHWWFDQNKEQIEAYLKKHPEKQKIMFGDQELLDVRKVINTKDDQTNSELFNYFKDKAFPNLSARRLGVMPDLVLDMFINGYRLNVGKTQTTDVNRTYQDKDPRGGIFDAVFTRGDQSKLLTSRHDFKEKNLKEISDLIKQELTEGKALGLSHTYANVRINHVINLWGADFDSEGNLEAIYVTDSDSNASIGMKKYFVGVNSAGKVAISAKEIEEDNIGAQVLGLFTLSTGQDIWEQTN
# B2: PRT-80 (protein)
# chain: MANQEIRYSEVTPKHITSVWTKGVTPPTQFIQGEDVFHAPYKANQGWYDITKTFNGKDDLLCGAATAGNMLHWWFDQNKEEIEAYLKKHPEKQKIMFGDQELLDVRKAINTKDDQTNSELFNYFRDKAFPNLSARRLGVMPDHVLDMFINGYYLNVNKTQTTDVNRTYQEKDPRGGIFDAVFTRGDQSKLLTSRHDFKEKTLKEISDLIKQELTEGKALGLSHTYANVRINHVINLWGADFDSNGNLKAIYVTDSDSDASIGMKKYFVGVNSAGKVAISAKEIKGDNIGAQVLGLFTLSTGQDIWNQTN
# B3: PRT-83 (protein)
# chain: MANQEIRYSEETPYHVTSVWTKGVTPPEKFTQGEDVFHAPYVANQGWYDITKTFNGKDDLLCGAATAGNMLHWWFDQNKDQIEAYLSKHPEKQKIMFGDQELLDVRKAINTKDSQTNSELFNYFRDKAFPNLSARRLGVMPDLVLDMFINGYRLNVTKTQTTDVNETYQEKDKRGGIFDAVFTRGDQSKLLTSRHDFKEKTLNEISDLIKKELTEGKALGISHTYANVRINHVINLWGADFNSEGNLEAIYVTDSDSNASIGMKKYFVGVNSAGKVAISAKEIEEENIGAQVLGLFTLSTGQDIWQQTN
# B4: PRT-112 (protein)
# chain: MRNATEAYAKEVPHKITSVWTKGVTPLTPEQFRYNGEDVIHAPYLANQGWYDITKTFDGKDNLLCGAATAGNMLHWWFDQNKTEIEAYLKKHPEKQKIIFNNQELFDLKAAIDTKDSQTNSALFNYFKDKAFPNLSARQLGVMPDHVLDMFINGYYLNVFKTQSTDVNRPYQDKDKRGGIFDAVFTRGDQTKLLTARHDLKNKGLNEISTLIKQELTEGKALALSHTYANVSISHVINLWGADFNAEGNLEAIYVTDSDANASIGMKKYFVGVNASGKVAISAKKIEGENIGAQVLGLFTLSSGKDIWQKLS
# B5: PRT-113 (protein)
# chain: MRNATEAYAKEVPHTITSVWTKGVTPPTPEQFTYYNEDVFHAPYLAHQGWYDITKTFNGKDNLLCGAATAGNMLHWWFDQNKTEIEAYLSKHPEKQKIIFNNQELFDLKAAIDTKDSQTNSQLFNYFKDKAFPNLSARQLGVMPDLVLDMFINGYYLNVFKTQSTDVNRPYQDKDKRGGIFDAVFTRGDQTKLLTARHDLKNKGLNDISDLIKQELTEGKALALSHTYANVSINHVINLWGADFNAEGNLEAIYVTDSDANASIGMKKYFVGINASGKVAISAKKIEGENIGAQVLGLFTLSSGKDIWQKLS
# B6: PRT-77 (protein)
# chain: MANQEIRYSEVTPYHVTSVWTKGVTPPTNFTQGEDVFHAPYVANQGWYDITKTFNGKDNLLCGAATAGNMLHWWFDQNKEEIERYLKKHPEKQKIMFGDQELLDVRKVINTKDDQKNSELFNYFRDKAFPGLSARRLGVMPDLVLDMFINGYYLNVGKTQTTDVNRTYQEKDKRGGIFDAVFTRGDQSKLLTSRHDFKEKNLKEISDLIKQELTEGKALGLSHTYANVRINHVINLWGADFDSNGNLEAIYVTDSDSNASIGMKKYFVGVNSAGKVAISAKEIEEDNIGAQVLGLFTLSTGQDIWNQTN
# B7: PRT-81 (protein)
# chain: MANQEIRYSEVTPSHVTSVWTKGVTPPADFTQGEDVFHAPYVANQGWYDITKTFNGKDNLLCGAATAGNMLHWWFDQNKEQIENYLKKHPEKQKIMFGDQELLDVRKVINTKDSQTNSALFNYFRDKAFPNLSARRLGVMPDLVLDMFINGYYLNLTKTQTTDVNRTYQTKDKRGGIFDAVFTRGDQSKLLTSRHDFKEKTLKEISDLIKQELTEGKALGLSHTYANVRINHVINLWGADFDSNGNLKAIYVTDSDSNASIGMKKYFVGVNSAGKVAISAKEITEDNIGAQVLGLFTLSTGKDQWNQTN
# B8: PRT-82 (protein)
# chain: MANQEIRYSEVTPSTITSVWTKGVTPPAQFIQNEDVFHAPYVANQGWYDITKTFNGKDDLLCGAATAGNMLHWWFDQNKEEIEAYLKKHPEKQKIMFGDQELLDVRKVINTKDDQTNSALFNYFKDKAFPNLSARRLGVMPDLVLDMFINGYYLNVGKTQTTDVNRTYQNKDRRGGIFDAVFTRGDQSKLLTARHDFKEKNLNEISDLIKQELTEGKALALSHTYANVSINHVINLWGADFDANGNLEAIYVTDSDSNASIGMKKYFVGVNSAGKVAISAKEIEEDNIGAQVLGLFTLSTGQDIWNKTN
# B9: PRT-6 (protein)
# chain: MANQEIRYSEVTPYHVTSVWTKGVTPPANFTQGEDVFHAPYVANQGWYDITKTFNGKDDLLCGAATAGNMLHWWFDQNKEQIERYLKEHPEKQKINFNGEQMFDVKEAIDTKNSQLDSKLFEYFKEKAFPYLSTKHLGVFPDHVIDMFINGYRLSLTNHGPTPVKEGSKDPRGGIFDAVFTRGDQSKLLTSRHDFKEKNLKEISDLIKKELTEGKALGLSHTYANVRINHVINLWGADFDSNGNLKAIYVTDSDSNASIGMKKYFVGVNSAGKVAISAKEIEGDNIGAQVLGLFTLSTGQDIWNQTN
# B10: PRT-9 (protein)
# chain: B9 chain with V11E, N199T, G218A, E282K, G283E, T298S
# B11: PRT-8 (protein)
# chain: B9 chain with A28T, V42I, E80D, I145L, K209Q, K246E, E282K, G283D
# B12: PRT-7 (protein)
# chain: B9 chain with V11E, E80D, E88K, N113D, L116T, E282K, G283E, N304E
# B13: PRT-111 (protein)
# chain: MRNATEAYAKEVPHQITSVWTKGVTPPTPEQFRYNNEDVFHAPYLAHQGWYDITKTFNGKDNLLCGAATAGNMLHWWFDQNKTEIEAYLKKHPEKQKIIFNNQELFDLKAAIDTKDSQTNSQLFNYFRDKAFPNLSARQLGVMPDLVLDMFINGYYLNVFKTQSTDVNRPYQDKDKRGGIFDAVFTRGDQTTLLTNRHDLKNKGLNDISTLIKQELTEGKALALSHTYANVSISHVINLWGADFNAEGNLEAIYVTDSDANASIGMKKYFVGINSAGHVAISAKKIEGENIGAQVLGLFTLSSGKDIWQKLS
# B14: PRT-78 (protein)
# chain: MANQEIRYSEETPYHVTSVWTKGVTPPADFTQGEDVFHAPYVANQGWYDITKTFNGKDDLLCGAATAGNMLHWWFDQNKEYIEAYLKKHPEKQKIMFGDQELLDVRKAINTKGSQKNSELFNYFRDKAFPNLSARRLGVMPDLVLDMFINGYYLNVTKTQTTDVNRTYQEKDKRGGIFDAVFTRGDQSKLLTSRHDFKEKGLKEISDLIKQELTEGKALGLSHTYANVRINHVINLWGADFDSDGNLKAIYVTDSDSNASIGMKKYFVGVNSAGKVAISAKEIKEDNIGAQVLGLFTLSTGQDIWNQTN
# Biological target: pooled human IgG
Protein,Enzyme Activity Endpoint Assay (purified): Fab′2 [ng/µL],Enzyme Activity Endpoint Assay (purified): Fc [ng/µL],Enzyme Activity Endpoint Assay (purified): IgG [ng/µL],Enzyme Activity Endpoint Assay (purified): scIgG [ng/µL],Enzyme Activity Endpoint Assay (purified): Fab'2 [ng/µL],Enzyme Activity Endpoint Assay: Fab′2 [ng/µL],Enzyme Activity Endpoint Assay: Fc [ng/µL],Enzyme Activity Endpoint Assay: IgG [ng/µL],Enzyme Activity Endpoint Assay: scIgG [ng/µL]
B1,0,44,72,38,–,–,–,–,–
B2,15,70,29,34,–,–,–,–,–
B3,0,44,42,40,–,–,–,–,–
B4,–,152,15,0,435,–,–,–,–
B5,–,189,0,0,656,–,–,–,–
B6,33,104,14,17,–,–,–,–,–
B7,14,67,30,56,–,–,–,–,–
B8,9,67,15,60,–,–,–,–,–
B9,–,–,–,–,–,49,129,16,15
B10,–,–,–,–,–,39,103,21,32
B11,–,–,–,–,–,50,127,16,16
B12,–,–,–,–,–,50,137,18,16
B13,–,133,26,0,328,–,–,–,–
B14,34,94,21,11,–,–,–,–,–
